T1: DdrO (Deinococcus radiodurans R1 (ATCC 13939)) (UniProt Q9RRB8)
T1 sequence: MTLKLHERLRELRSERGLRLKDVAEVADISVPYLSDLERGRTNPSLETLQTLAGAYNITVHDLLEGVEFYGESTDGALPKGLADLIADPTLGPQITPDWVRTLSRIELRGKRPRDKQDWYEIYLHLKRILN

T2: DdrO (Deinococcus radiodurans R1 (ATCC 13939), UniProt Q9RRB8 1-131)
T2 sequence: T1 sequence

B1: minimum DdrO binding sequence of PrecA (21 bp) (dsDNA)
DNA 1: TGTTATGCTGCTAGCAGAAAT
DNA 2: ATTTCTGCTAGCAGCATAACA

Molecular target: T1, DdrO (Deinococcus radiodurans R1 (ATCC 13939))
Assay: EMSA
Conditions: 150 mM NaCl, 20 mM Tris-HCl pH 8.0, 5 mM MgCl2, 1.6 uM DNA, 0-16 uM protein, 30 C; 12% TB-PAGE

Row | Molecule | binding
1 | AACGCCAGTTGATTAAGGGGAAATGGAGAGGGGTTCGGGGCGGCCCCTGCCTGCTCTGTCGGCCAGCTTTCGGCAGAGTGGGCCCCGGCTCCGGCGCACTGACGCGGGCTAGACCCTCCCGCGCCGCCCTCCACCGCCGCCTCTACCTTCGTCCTATGCCCCG (double strand) [PddrA- (no RDRM)] | no binding
2 | AGAAACACCAGCATGATCGCAAGGTAGGCTGCTCCGCGCACTGGGGCGTCCGCCGAAAGGTGCAGCGCGCCTCACCTTCCCTTGACCCATCCCATTCAGGGCCGCACCCTGTAGACACTGGTTACGTCCTCCCATATACTCCGGTGAGGTTGTTATGCTGCTAGCAGAAATCATCAGTGTGGGCACG (double strand) [PrecA (recA promoter, RDRM)] | binds
3 | AGGAGCAGTTTCTTCATGAAGCCTCCAGATCAAAGGCGCACGAAGCAGGCCTGCCCCAAAGGAAGGCGGGCCTGCTGGGTTGCGTGACAGCCGGGACGTAAATAATGGCCCCAGGGTAGGGGCGGGCCGGGGGGGTGTCAAGGTACGCAGCGGGGGGCCTCCATGATTCTGCCCACAACGTAAACGCGCTATCCTGGGGAG (double strand) [PrecQ- (no RDRM)] | no binding
4 | AGTTTAGAACAGAATAACATTACGGTCAAGACATAAAACGCCAGTTGATTAAGGGGAAATGGAGAGGGGTTCGGGGCGGCCCCTGCCTGCTCTGTCGGCCAGCTTTCGGCAGAGTGGGCCCCGGCTCCGGCGCACTGACGCGGGCTAGACCCTCCCGCGCCGCCCTCCACCGCCGCCTCTACCTTCGTCCTATGCCCCG (double strand) [PddrA] | binds
5 | CAACCTCACCGGAGTATATGGGAGGACGTAACCAGTGTCTACAGGGTGCGGCCCTGAATGGGATGGGTCAAGGGAAGGTGAGGCGCGCTGCACCTTTCGGCGGACGCCCCAGTGCGCGGAGCAGCCTACCTTGCGATCATGCTGGTGTTTCT (double strand) [PrecA- (no RDRM)] | no binding
6 | CCCTTGCCATACTGCCTTTATTATGCCCTGAACAGATTAAAAAGGCCAGGGGTAGCACTCTGGCATAAGGAAAACCCAGCTTCGGCGGTCTTTGTGCCTTTGCCAGCTTTCACGGCGAAAGAAACGTCCAGATGACAGTGACACCCAAAGTGCACCCGGCGCCGTTCAGGGCACAGGTGCGGACTACAGTGGGGCCGTGAC (double strand) [PpprA] | binds
7 | GCACTGCGGCTTGCAGCGCCGGGTGACCATGCCCAGCCTCCCTGCTCCAGCGCCCGCCCGCAAACCCGAGCGGCGGCTGTTCGGGCTCTTGCGAATCTGAAGGTCTTGGTGCCCGGCCTCTGCTGGGAGGCGGGACACTGGCACCGGCTTCCCCGATGTG (double strand) [PddrB- (no RDRM)] | no binding
8 | GCACTGCGGCTTGCAGCGCCGGGTGACCATGCCCAGCCTCCCTGCTCCAGCGCCCGCCCGCAAACCCGAGCGGCGGCTGTTCGGGCTCTTGCGAATCTGAAGGTCTTGGTGCCCGGCCTCTGCTGGGAGGCGGGACACTGGCACCGGCTTCCCCGATGTGTTATGTTATTTACGTAAGGAGGAGGCAGATGTTGCAGATT (double strand) [PddrB] | binds
9 | TAAAAAGGCCAGGGGTAGCACTCTGGCATAAGGAAAACCCAGCTTCGGCGGTCTTTGTGCCTTTGCCAGCTTTCACGGCGAAAGAAACGTCCAGATGACAGTGACACCCAAAGTGCACCCGGCGCCGTTCAGGGCACAGGTGCGGACTACAGTGGGGCCGTGAC (double strand) [PpprA- (no RDRM)] | no binding
10 | TACTGCGGTCTGACGATGACCTCGTCCTTATCTGCGGGAGCCTCTATCTGCTCGGCGAACTGCGTCCTTTGCTGCTGGGCGAGCAGTCGGAAGGCCACGAACGCTGGCAATAGCCACAGCAGCGGCCAATTTCTGGTTTCGAAACAGGAATAAGGCAAGTTGACTGCCCTCA (double strand) [PddrO- (no RDRM)] | no binding
11 | TACTGCGGTCTGACGATGACCTCGTCCTTATCTGCGGGAGCCTCTATCTGCTCGGCGAACTGCGTCCTTTGCTGCTGGGCGAGCAGTCGGAAGGCCACGAACGCTGGCAATAGCCACAGCAGCGGCCAATTTCTGGTTTCGAAACAGGAATAAGGCAAGTTGACTGCCCTCATTCTGTATTGACCGTAGCAAGGAGCGGTGTTACACT (double strand) [PddrO] | binds
12 | TAGTAACAAGCAGAGTCAATTATGTCAATGACATAAAAGGCTCAGGCCTTCTTGGTCTTCCACTCCGGGCGGTCCTTGACCACCAGGACGCGGCGGACGTTGTCGCGCAGGCGCAGGCTGCTGGCGATGGCGGTTTCGGGGTTGCCCGAAGCCTTGATGGTGTACATCAGGTAGTAGCCTTCGCGGTCCTTGCCCACCTGG (double strand) [PdrssB] | binds

Molecular target: T2, DdrO
Assay: EMSA; 150 mM NaCl, 20 mM Tris-HCl pH 8.0, 5 mM MgCl2, 1.6 uM DNA, 0-16 uM protein, 30 C; 12% TB-PAGE
Conditions: protein: recombinant; tags: 6xHis-MBP tag removed by TEV; chain copies: 2; blunt

Row | Molecule | binding result
13 | B1 | binds
